{
  "source": "patent US20030100069A1",
  "about": "(Human Genome Sciences, published 2003)",
  "molecules": {"B1": {"name": "F-TR8-530 (FLAG-tagged TR8 C-terminal deletion lacking 85 amino acids) (receptor, not shown: small tags and cut ends)", "chain": "CTSEKHYEHLGRCCNKCEPGKYMSSKCTTTSDSVCLPCGPDEYLDSWNEEDKCLLHKVCDTGKALVAVVAGNSTTPRRCACTAGYHWSQDCECCRRNTECAPGLGAQHPLQLNKDTVCKPCLAGYFSDAFSSTDKCRPWTNCTFLGKRVEHHGTEKSDVVCSSSLPARKPPNEPHVYLPGLIILLLFASVALVAAIIFGVCYRKKGKALTANLWHWINEACGRLSGDKESSGDSCVSTHTANFGQQGACEGVLLLTLEEKTFPEDMCYPDQGGVCQGTCVGGGPYAQGEDARMLSLVSKTEIEEDSFRQMPTEDEYMDRPSQPTDQLLFLTEPGSKSTPPFSEPLEVGENDSLSQCFTGTQSTVGSESCNCTEPLCRTDWTPMSSENYLQKEVDSGHCPHWAASPSPNWADVCTGCRNPPGEDCEPLVGSPKRGPLPQCAYGMGLPPEEEASRTEARDQPEDGADGRLPSSARAGAGSGISPGGQSPASGNVTGNSNS", "notes": "also called F-TR8 deletion mutant"}, "B2": {"name": "F-TR8-427 (FLAG-tagged TR8 C-terminal deletion lacking 188 amino acids) (receptor, not shown: small tags and cut ends)", "chain": "CTSEKHYEHLGRCCNKCEPGKYMSSKCTTTSDSVCLPCGPDEYLDSWNEEDKCLLHKVCDTGKALVAVVAGNSTTPRRCACTAGYHWSQDCECCRRNTECAPGLGAQHPLQLNKDTVCKPCLAGYFSDAFSSTDKCRPWTNCTFLGKRVEHHGTEKSDVVCSSSLPARKPPNEPHVYLPGLIILLLFASVALVAAIIFGVCYRKKGKALTANLWHWINEACGRLSGDKESSGDSCVSTHTANFGQQGACEGVLLLTLEEKTFPEDMCYPDQGGVCQGTCVGGGPYAQGEDARMLSLVSKTEIEEDSFRQMPTEDEYMDRPSQPTDQLLFLTEPGSKSTPPFSEPLEVGENDSLSQCFTGTQSTVGSESCNCTEPLCRTDWTPMSSENYLQKEVDS", "notes": "The C-terminal limit is inferred from the construct name and the stated deletion of 188 residues; also called F-TR8 deletion mutant"}, "B3": {"name": "F-TR8-330 (FLAG-tagged TR8 C-terminal deletion lacking 285 amino acids) (receptor, not shown: small tags and cut ends)", "chain": "CTSEKHYEHLGRCCNKCEPGKYMSSKCTTTSDSVCLPCGPDEYLDSWNEEDKCLLHKVCDTGKALVAVVAGNSTTPRRCACTAGYHWSQDCECCRRNTECAPGLGAQHPLQLNKDTVCKPCLAGYFSDAFSSTDKCRPWTNCTFLGKRVEHHGTEKSDVVCSSSLPARKPPNEPHVYLPGLIILLLFASVALVAAIIFGVCYRKKGKALTANLWHWINEACGRLSGDKESSGDSCVSTHTANFGQQGACEGVLLLTLEEKTFPEDMCYPDQGGVCQGTCVGGGPYAQGEDARMLSLVS", "notes": "The C-terminal limit is inferred from the construct name and the stated deletion of 285 residues; also called F-TR8 deletion mutant"}, "B4": {"name": "in vitro translated 35S-labeled TRAF2 (protein, UniProt Q12933 2-501, looked up, species assumed)", "TNF receptor-associated factor 2": "AAASVTPPGSLELLQPGFSKTLLGTKLEAKYLCSACRNVLRRPFQAQCGHRYCSFCLASILSSGPQNCAACVHEGIYEEGISILESSSAFPDNAARREVESLPAVCPSDGCTWKGTLKEYESCHEGRCPLMLTECPACKGLVRLGEKERHLEHECPERSLSCRHCRAPCCGADVKAHHEVCPKFPLTCDGCGKKKIPREKFQDHVKTCGKCRVPCRFHAIGCLETVEGEKQQEHEVQWLREHLAMLLSSVLEAKPLLGDQSHAGSELLQRCESLEKKTATFENIVCVLNREVERVAMTAEACSRQHRLDQDKIEALSSKVQQLERSIGLKDLAMADLEQKVLEMEASTYDGVFIWKISDFARKRQEAVAGRIPAIFSPAFYTSRYGYKMCLRIYLNGDGTGRGTHLSLFFVVMKGPNDALLRWPFNQKVTLMLLDQNNREHVIDAFRPDVTSSSFQRPVNDMNIASGCPLFCPVSKMEAKNSYVRDDAIFIKAIVDLTGL", "modifications": "35S-labeled"}},
  "data": [
    {"target": "T1, endogenous TRAF2 (of HeLa and 293 cells) (human, UniProt Q12933 2-501)", "T1 construct": "293 is called a human embryonic kidney cell line; HeLa is a human line; Detected by western blot with anti-TRAF2 polyclonal antibodies; also called TNF receptor-associated factor 2", "T1 sequence (looked up)": "B4 TNF receptor-associated factor 2", "test": "anti-FLAG co-immunoprecipitation from HeLa and 293 lysates, anti-TRAF2 western blot", "experimental": "Immunoprecipitations and JNK Kinase Assays—From transient transfected cells, lysates were prepared and immunoprecipitated using anti-FLAG-conjugated agarose or anti-JNK1 and protein A/G sepharose for 1 hr. Where indicated, ³⁵S-labeled proteins were added to the lysate prior to immunoprecipitation. Beads were collected by centrifugation and washed four times in lysis buffer followed by two washes in kinase buffer (20 mM TRIS, pH 8, 50 mM NaCl, and 1 mM DTT). For coimmunoprecipation, proteins were eluted in SDS-sample buffer, boiled, and subjected to SDS-PAGE. Analysis of JNK activity was performed using exogenously added GST-Jun(1-79) as a substrate as previously described (Haridas et al., J. Immunol. 160:3152-3162 (1998)). Quantitation of JNK activity and ³⁵S-labeled TRAF binding was analyzed using a PhosphoImager and Imagequant Software (Molecular Dynamics, Sunnyvale, Calif.).\nTRAF2, TRAF5, and TRAF6 Interact with the C-Terminus of TR8—Since most of the TNFR family members utilize TRAFs as signaling components and that TR8 contains putative TRAF binding domains, we examined the ability for TR8 to interact with various TRAFs. […] After 24-36 hr, cell lysates were prepared and epitope-tagged receptors were immunoprecipitated with anti-FLAG conjugated-agarose. Coprecipitation of endogenous TRAF2 was detected by western blotting with anti-TRAF2 polyclonal antibodies. […] Membranes were also probed with anti-FLAG to insure precipitation of epitope-tagged receptors (data not shown).", "values": [
      {"molecule": "B1", "binding result": "no binding"},
      {"molecule": "B2", "binding result": "no binding"},
      {"molecule": "B3", "binding result": "no binding"}
    ]},
    {"target": "T2, F-TR8-615 (FLAG epitope-tagged TR8, residues 33-615 of FIGS. 1A-C) (human) (UniProt Q9Y6Q6)", "T2 sequence": "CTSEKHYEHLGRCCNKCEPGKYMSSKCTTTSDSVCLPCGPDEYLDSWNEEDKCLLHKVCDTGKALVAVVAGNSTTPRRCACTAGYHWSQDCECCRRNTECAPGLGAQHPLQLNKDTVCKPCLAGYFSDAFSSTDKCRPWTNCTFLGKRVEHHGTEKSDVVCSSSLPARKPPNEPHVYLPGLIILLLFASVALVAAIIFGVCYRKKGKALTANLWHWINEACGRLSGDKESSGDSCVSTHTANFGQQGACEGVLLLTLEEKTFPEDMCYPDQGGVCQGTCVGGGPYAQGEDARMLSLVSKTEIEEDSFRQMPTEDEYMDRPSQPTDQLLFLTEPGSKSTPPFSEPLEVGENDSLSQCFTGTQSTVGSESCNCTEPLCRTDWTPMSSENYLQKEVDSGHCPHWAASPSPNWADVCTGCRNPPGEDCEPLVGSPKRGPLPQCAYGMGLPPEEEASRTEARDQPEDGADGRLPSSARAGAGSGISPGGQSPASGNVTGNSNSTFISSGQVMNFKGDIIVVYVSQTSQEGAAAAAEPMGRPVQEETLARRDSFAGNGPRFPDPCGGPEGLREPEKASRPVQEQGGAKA", "test": "anti-FLAG co-immunoprecipitation of 35S-labeled TRAF from 293 lysates, PhosphorImager quantitation", "units": {"fold increase in binding relative to vector transfected cells": "fold"}, "values": [
      {"molecule": "in vitro translated 35S-labeled TRAF5", "fold increase in binding relative to vector transfected cells": 11},
      {"molecule": "in vitro translated 35S-labeled TRAF6", "fold increase in binding relative to vector transfected cells": 5},
      {"molecule": "B4", "fold increase in binding relative to vector transfected cells": 145}
    ]}
  ]
}
